Source: PMC4347857, “Characterization of the Mycobacterial Acyl-CoA Carboxylase Holo Complexes Reveals Their Functional Expansion into Amino Acid Catabolism” (PLoS Pathogens, 2015)

B1: M. tuberculosis AccA1 (Rv2501c) (natural protein)
chain: MFDTVLVANRGEIAVRVIRTLRRLGIRSVAVYSDPDVDARHVLEADAAVRLGPAPARESYLDIGKVLDAAARTGAQAIHPGYGFLAENADFAAACERARVVFLGPPARAIEVMGDKIAAKNAVAAFDVPVVPGVARAGLTDDALVTAAAEVGYPVLIKPSAGGGGKGMRLVQDPARLPEALVSARREAMSSFGDDTLFLERFVLRPRHIEVQVLADAHGNVVHLGERECSLQRRHQKVIEEAPSPLLDPQTRERIGVAACNTARCVDYVGAGTVEFIVSAQRPDEFFFMEMNTRLQVEHPVTEAITGLDLVEWQLRVGAGEKLGFAQNDIELRGHAIEARVYAEDPAREFLPTGGRVLAVFEPAGPGVRVDSSLLGGTVVGSDYDPLLTKVIAHGADREEALDRLDQALARTAVLGVQTNVEFLRFLLADERVRVGDLDTAVLDERSADFTARPAPDDVLAAGGLYRQWALARRAQGDLWAAPSGWRGGGHMAPVRTAMRTPLRSETVSVWGPPESAQVQVGDGEIDCASVQVTREQMSVTISGLRRDYRWAEADRHLWIADERGTWHLREAEEHKIHRAVGARPAEVVSPMPGSVIAVQVESGSQISAGDVVVVVEAMKMEHSLEAPVSGRVQVLVSVGDQVKVEQVLARIKD
notes: also called BC α-subunit of the M. tuberculosis MCC
B2: M. tuberculosis AccD1 (Rv2502c), hexa-histidine tagged (natural protein)
chain: MTTPSIAIAPSFADEHRRLVAELNNKLAAAALGGNERARKRHVSRGKLLPRERVDRLLDPGSPFLELAPLAAGGMYGDESPGAGIITGIGRVSGRQCVIVANDATVKGGTYYPMTVKKHLRAQEVALQNMLPCIYLVDSGGAFLPRQDEVFPDREHFGRIFYNQATMSAKGIPQVAAVLGSCTAGGAYVPAMSDEAVIVREQGTIFLGGPPLVKAATGEIVSAEELGGGDLHSRTSGVTDHLADDDEDALRIVRAIADTFGPCEPAQWDVRRSVEPKYPQAELYDVVPPDPRVPYDVHEVVVRIVDGSEFSEFKAKYGKTLVTAFARVHGHPVGIVANNGVLFSESALKGAHFIELCDKRKIPLLFLQNIAGFMVGRDYEAGGIAKHGAKMVTAVACARVPKLTVVIGGSYGAGNYSMCGRAYSPRFLWMWPNARISVMGGEQAASVLATVRGEQLSAAGTPWSPDEEEAFKAPIRAQYEDQGNPYYSTARLWDDGIIDPADTRTVVGLALSLCAHAPLDQVGYGVFRM
notes: also called CT β-subunit of the M. tuberculosis MCC; not shown: His6, N-terminal, kept

Tests used:
[1] = molecular target: the molecule itself; assay: negative-stain electron microscopy
[2] = molecular target: B1; assay: pull-down; details: partners not purified

| Binder | stoichiometry N [1] | binding result [2] |
| --- | --- | --- |
| B1 | 3 | – |
| B2 | 6 | binds |
